{"source": "patent US20240392251A1", "about": "“CULTURE MEDIUM AND CULTURE METHOD FOR LUNG CANCER EPITHELIAL CELLS, AND APPLICATION THEREOF” (PRECEDO PHARMACEUTICALS CO., LTD, priority 2021, published 2024)", "molecules": {"B1": {"name": "epidermal growth factor: growth factor from Sino Biological Inc. (protein, UniProt P01133 23-1207, looked up)", "Pro-epidermal growth factor": "PQHWSCPEGTLAGNGNSTCVGPAPFLIFSHGNSIFRIDTEGTNYEQLVVDAGVSVIMDFHYNEKRIYWVDLERQLLQRVFLNGSRQERVCNIEKNVSGMAINWINEEVIWSNQQEGIITVTDMKGNNSHILLSALKYPANVAVDPVERFIFWSSEVAGSLYRADLDGVGVKALLETSEKITAVSLDVLDKRLFWIQYNREGSNSLICSCDYDGGSVHISKHPTQHNLFAMSLFGDRIFYSTWKMKTIWIANKHTGKDMVRINLHSSFVPLGELKVVHPLAQPKAEDDTWEPEQKLCKLRKGNCSSTVCGQDLQSHLCMCAEGYALSRDRKYCEDVNECAFWNHGCTLGCKNTPGSYYCTCPVGFVLLPDGKRCHQLVSCPRNVSECSHDCVLTSEGPLCFCPEGSVLERDGKTCSGCSSPDNGGCSQLCVPLSPVSWECDCFPGYDLQLDEKSCAASGPQPFLLFANSQDIRHMHFDGTDYGTLLSQQMGMVYALDHDPVENKIYFAHTALKWIERANMDGSQRERLIEEGVDVPEGLAVDWIGRRFYWTDRGKSLIGRSDLNGKRSKIITKENISQPRGIAVHPMAKRLFWTDTGINPRIESSSLQGLGRLVIASSDLIWPSGITIDFLTDKLYWCDAKQSVIEMANLDGSKRRRLTQNDVGHPFAVAVFEDYVWFSDWAMPSVMRVNKRTGKDRVRLQGSMLKPSSLVVVHPLAKPGADPCLYQNGGCEHICKKRLGTAWCSCREGFMKASDGKTCLALDGHQLLAGGEVDLKNQVTPLDILSKTRVSEDNITESQHMLVAEIMVSDQDDCAPVGCSMYARCISEGEDATCQCLKGFAGDGKLCSDIDECEMGVPVCPPASSKCINTEGGYVCRCSEGYQGDGIHCLDIDECQLGEHSCGENASCTNTEGGYTCMCAGRLSEPGLICPDSTPPPHLREDDHHYSVRNSDSECPLSHDGYCLHDGVCMYIEALDKYACNCVVGYIGERCQYRDLKWWELRHAGHGQQQKVIVVAVCVVVLVMLLLLSLWGAHYYRTQKLLSKNPKNPYEESSRDVRSRRPADTEDGMSSCPQPWFVVIKEHQDLKNGGQPVAGEDGQAADGSMQPTSWRQEPQLCGMGTEQGCWIPVSSDKGSCPQVMERSFHMPSYGTQTLEGGVEKPHSLLSANPLWQQRALDPPHQMELTQ", "modifications": "Pro-epidermal growth factor"}}, "key": {"[1]": {"test_system": "lung cancer cells (No. B18)", "test": "Effects of different factors added to basic medium BM on proliferation of primary lung cancer cells", "assay_type": "cell-based, human", "settings": "factor added to BM at the concentrations of Table 3; 12 days of culture; FIGS. 1A-1D", "procedure": "(§1) Extracellular matrix gel (Matrigel®) (manufactured by Corning) was diluted with serum-free DMEM/F12 medium at a ratio of 1:100 to prepare an extracellular matrix diluent. The extracellular matrix diluent was added to a 48-well culture plate with 500 μl/well to completely cover the bottom of the wells of the culture plate. The culture plate was let stand for 1 hour in a 37° C. incubator. After 1 hour, the extracellular matrix diluent was removed to provide a Matrigel-coated plate.\nPreparation of basic medium (abbreviated as BM): BM was prepared by adding 0.2 vol. % of Primocin (purchased from Invivogen, with a concentration of 50 mg/ml) to the commercial DMEM/F-12 medium to provide a final concentration of 100 μg/ml.\nNext, different kinds and concentrations of additive factors (Table 3) were added to the basic medium (BM), so as to prepare culture mediums for lung cancer epithelial cells containing different additive components.\nThe culture mediums with different components were added at a volume of 500 μl/well to 48-well plates which were coated with extracellular matrix gel (Matrigel). Lung cancer cells (No. B18) isolated from lung cancer tissues according to the same method as described in Example 1 were inoculated at a cell density of 2×10^4 cells/cm^2 in the above-mentioned 48-well culture plates which were coated with Matrigel. […]"}, "[2]": {"test_system": "lung cancer epithelial cells (Sample No. B26)", "test": "Effects of different concentrations of the additive factors on proliferation of primary lung cancer cells", "assay_type": "cell-based, human", "settings": "added to No. 8 medium lacking the factor; cell number ratio to Blank Control; FIGS. 3A-3H", "procedure": "as §1, with “(Matrigel®)” for “(Matrigel®) (manufactured by Corning)”, “200” for “500”\nNo. 8 culture medium for primary lung cancer epithelial cells was prepared.\nLung cancer epithelial cells derived from cancer tissues were isolated from the cancer tissue of a lung cancer patient (Sample No. B26) using the same method as in Example 1. Next, lung cancer epithelial cells derived from cancer tissues were counted with a flow imaging counter (JIMBIO FIL, Jiangsu Jimbio Technology Co., Ltd.) to get the total number of cells. Then, the cells were inoculated at a density of 4×10^4 cells/cm^2 in a 48-well plate which was coated with Matrigel®. […] The centrifuged cell pellet was resuspended in the basic medium BM and the cells were counted with a flow imaging counter (JIMBIO FIL, Jiangsu Jimbio Technology Co., Ltd.) to get the total number of cells. […]"}}}
{"molecule": "B1", "values": [{"measurement": "effect on cell proliferation (ratio of number of cells to that in basic medium BM)", "setting": "[1]", "value": "certain promoting effects on cell proliferation in specific concentration ranges"}, {"measurement": "amount in the culture medium, most preferably", "setting": "[2]", "value": 20, "unit": "ng/mL"}]}
